Experimental data as given in article PMC5119558, “Applying bimolecular fluorescence complementation to screen and purify aquaporin protein:protein complexes” (Protein Science : A Publication of the Protein Society, 2016).

Columns and labels:
[1] = biological target: the molecule itself; experiment: pull-down + SEC; YFPN-AQP0 + YFPC-CaM* co-expressed in S. cerevisiae; membranes solubilised in DDM; HisTrap HP (Ni-NTA) by the His tag on YFPC-CaM*, eluted with 250 mM imidazole; then FSEC on Superose6 Increase (20 mM Tris-HCl pH 7.5, 100 mM NaCl, 5 mM CaCl2, 1% β-OG); fluorescent peak at 15 mL on SDS-PAGE (Coomassie), immunoblot with anti-AQP0 and anti-CaM
[2] = biological target: the molecule itself; experiment: SEC; isolated AQP0 alone on SEC

B1: YFPN‐AQP0 of the recloned pair YFPN‐AQP0 + YFPC‐CaM* (hexa‐histidine tag moved away from the AQP0 moiety) (natural protein, human, UniProt P30301 1-263, looked up)
chain: MWELRSASFWRAIFAEFFATLFYVFFGLGSSLRWAPGPLHVLQVAMAFGLALATLVQSVGHISGAHVNPAVTFAFLVGSQMSLLRAFCYMAAQLLGAVAGAAVLYSVTPPAVRGNLALNTLHPAVSVGQATTVEIFLTLQFVLCIFATYDERRNGQLGSVALAVGFSLALGHLFGMYYTGAGMNPARSFAPAILTGNFTNHWVYWVGPIIGGGLGSLLYDFLLFPRLKSISERLSVLKGAKPDVSNGQPEVTGEPVELNTQAL
notes: aquaporin 0 (AQP0), human; gene codon optimized for yeast (Genscript); As m1 but without the His tag; The purified complex is read by its size (about 500 kDa) as an octameric form of the aquaporin; also called hAQP0; source: S. cerevisiae, co-expressed with YFPC-CaM*, purified as a complex (DDM-solubilised membranes, Ni-NTA, SEC); not shown: YFPN (SYFP2 amino acids 1 to 154, linker KQKVMNH), …
stoichiometry N [1]: 8

B2: isolated AQP0 (expressed and purified separately) (natural protein, human, UniProt P30301 1-263, looked up)
chain: MWELRSASFWRAIFAEFFATLFYVFFGLGSSLRWAPGPLHVLQVAMAFGLALATLVQSVGHISGAHVNPAVTFAFLVGSQMSLLRAFCYMAAQLLGAVAGAAVLYSVTPPAVRGNLALNTLHPAVSVGQATTVEIFLTLQFVLCIFATYDERRNGQLGSVALAVGFSLALGHLFGMYYTGAGMNPARSFAPAILTGNFTNHWVYWVGPIIGGGLGSLLYDFLLFPRLKSISERLSVLKGAKPDVSNGQPEVTGEPVELNTQAL
notes: also called pure protein AQP0; source: expressed and purified separately
stoichiometry N [2]: 4
